Source: the supplement of paper PMC10567573

B1: CDS2 (parent)
chain: IHSIALSTFASLIGPFGGFFASGF

Variants of: B1
Assay: protein stability index of a GFP-peptide fusion (GPS, HEK-293T) (PSI 1-6); higher = more stable
Conditions: c terminus: a fixed tail appended
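Note: lentivirally expressed fusions sorted by FACS into six bins by GFP to DsRed ratio, PSI derived from sequencing read proportions per bin multiplied by bin number.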

Q: For H2A, which protein stability index is on record?
A: 2.61

Q: For H2D, which protein stability index is on record?
A: 2.57

Q: With H2I as the variant, how does the protein stability index read?
A: 2.41

Q: Which protein stability index does the source give for H2P here?
A: 1.95

Q: Which protein stability index does the source give for F19I here?
A: 2.97

Q: Which protein stability index does the source give for F19L here?
A: 3.19

Q: With F19A as the variant, how does the protein stability index read?
A: 2.87

Q: With F19V as the variant, how does the protein stability index read?
A: 2.86

Q: With F19G as the variant, how does the protein stability index read?
A: 3.81

Q: With F19N as the variant, how does the protein stability index read?
A: 3.42

Q: For F19Y, which protein stability index is on record?
A: 4.14

Q: Which protein stability index does the source give for F19C here?
A: 2.63

Q: With F19E as the variant, how does the protein stability index read?
A: 3.01

Q: For F19M, which protein stability index is on record?
A: 4.02

Q: Which protein stability index does the source give for A21P here?
A: 2.4

Q: Which protein stability index does the source give for A21W here?
A: 2.61

Q: For A21M, which protein stability index is on record?
A: 2.69

Q: Which protein stability index does the source give for A21T here?
A: 3.65

Q: Which protein stability index does the source give for A21K here?
A: 2.22

Q: For A21E, which protein stability index is on record?
A: 2.24

Q: With A21L as the variant, how does the protein stability index read?
A: 2.75

Q: Which protein stability index does the source give for A21C here?
A: 3.33

Q: For A21H, which protein stability index is on record?
A: 4.77

Q: With F16A as the variant, how does the protein stability index read?
A: 3.6

Q: For F16Q, which protein stability index is on record?
A: 3.71

Q: For F16G, which protein stability index is on record?
A: 4.52

Q: For F16K, which protein stability index is on record?
A: 3.11

Q: Which protein stability index does the source give for F16T here?
A: 2.92

Q: For F16Y, which protein stability index is on record?
A: 2.37

Q: For F16L, which protein stability index is on record?
A: 1.91

Q: For P15N, which protein stability index is on record?
A: 2.82

Q: Which protein stability index does the source give for P15K here?
A: 1.77

Q: With P15R as the variant, how does the protein stability index read?
A: 1.88

Q: For P15E, which protein stability index is on record?
A: 3.88

Q: With P15A as the variant, how does the protein stability index read?
A: 2.41

Q: With P15Y as the variant, how does the protein stability index read?
A: 1.75

Q: With P15M as the variant, how does the protein stability index read?
A: 3.79

Q: Which protein stability index does the source give for P15Q here?
A: 3.43

Q: With P15I as the variant, how does the protein stability index read?
A: 4.59

Q: With G17F as the variant, how does the protein stability index read?
A: 2.74

Q: For G17Q, which protein stability index is on record?
A: 2.83

Q: For G17V, which protein stability index is on record?
A: 2.5

Q: Which protein stability index does the source give for G17M here?
A: 2.12

Q: For G17H, which protein stability index is on record?
A: 3.56

Q: For G17D, which protein stability index is on record?
A: 3.88

Q: Which protein stability index does the source give for G17E here?
A: 3.13

Q: With G17P as the variant, how does the protein stability index read?
A: 2.78

Q: Which protein stability index does the source give for G17R here?
A: 2.63

Q: For G17A, which protein stability index is on record?
A: 2.41

Q: With G17Y as the variant, how does the protein stability index read?
A: 2.06

Q: With F9Y as the variant, how does the protein stability index read?
A: 1.62

Q: With F9Q as the variant, how does the protein stability index read?
A: 3.22

Q: Which protein stability index does the source give for F9N here?
A: 2.11

Q: Which protein stability index does the source give for F9I here?
A: 3.79

Q: For F9D, which protein stability index is on record?
A: 2.15

Q: With F9C as the variant, how does the protein stability index read?
A: 2.62

Q: Which protein stability index does the source give for F9W here?
A: 2.81

Q: With S11H as the variant, how does the protein stability index read?
A: 2.75

Q: Which protein stability index does the source give for S11C here?
A: 2.7

Q: With S11R as the variant, how does the protein stability index read?
A: 2.81

Q: With S11F as the variant, how does the protein stability index read?
A: 3.22

Q: Which protein stability index does the source give for S11Q here?
A: 3.26

Q: Which protein stability index does the source give for S11K here?
A: 3.22

Q: For S3C, which protein stability index is on record?
A: 4.47

Q: For S3L, which protein stability index is on record?
A: 4.15

Q: For S3V, which protein stability index is on record?
A: 3.02

Q: For S3N, which protein stability index is on record?
A: 4.17

Q: With S22P as the variant, how does the protein stability index read?
A: 3.67

Q: With S22C as the variant, how does the protein stability index read?
A: 2.86

Q: With S22F as the variant, how does the protein stability index read?
A: 3.51

Q: Which protein stability index does the source give for S22D here?
A: 2.53

Q: For S22M, which protein stability index is on record?
A: 3.08

Q: With A5V as the variant, how does the protein stability index read?
A: 1.84

Q: Which protein stability index does the source give for A5E here?
A: 3.98

Q: Which protein stability index does the source give for A5L here?
A: 2.15

Q: Which protein stability index does the source give for A5W here?
A: 2.77

Q: With A5C as the variant, how does the protein stability index read?
A: 3.88

Q: Which protein stability index does the source give for L6I here?
A: 3.38

Q: With L6G as the variant, how does the protein stability index read?
A: 2.54

Q: Which protein stability index does the source give for L6T here?
A: 1.39

Q: For L6M, which protein stability index is on record?
A: 4.1

Q: With L6W as the variant, how does the protein stability index read?
A: 2.43

Q: For L6P, which protein stability index is on record?
A: 2.23

Q: Which protein stability index does the source give for L6F here?
A: 2.34

Q: Which protein stability index does the source give for I13G here?
A: 2.48

Q: With I13Y as the variant, how does the protein stability index read?
A: 2.89

Q: For I13H, which protein stability index is on record?
A: 3.22

Q: For I13N, which protein stability index is on record?
A: 2

Q: For I13E, which protein stability index is on record?
A: 2.6

Q: For I13L, which protein stability index is on record?
A: 2.64

Q: With I13S as the variant, how does the protein stability index read?
A: 2.8

Q: For F24L, which protein stability index is on record?
A: 3.68

Q: With F24V as the variant, how does the protein stability index read?
A: 3.32

Q: For F24G, which protein stability index is on record?
A: 4.4

Q: With F24N as the variant, how does the protein stability index read?
A: 3.11

Q: Which protein stability index does the source give for F24D here?
A: 3.08

Q: With F24S as the variant, how does the protein stability index read?
A: 2.63

Q: For F24H, which protein stability index is on record?
A: 3.27

Q: For I4M, which protein stability index is on record?
A: 2.86

Q: For I4E, which protein stability index is on record?
A: 2.14

Q: For I4L, which protein stability index is on record?
A: 1.57

Q: For I4A, which protein stability index is on record?
A: 2.44

Q: With T8E as the variant, how does the protein stability index read?
A: 2.67

Q: With T8V as the variant, how does the protein stability index read?
A: 2.86

Q: Which protein stability index does the source give for T8G here?
A: 2.63

Q: For T8M, which protein stability index is on record?
A: 2.49

Q: For T8W, which protein stability index is on record?
A: 2.58

Q: For T8R, which protein stability index is on record?
A: 3.47

Q: With T8P as the variant, how does the protein stability index read?
A: 3.52

Q: With F20K as the variant, how does the protein stability index read?
A: 2.68

Q: With F20M as the variant, how does the protein stability index read?
A: 2.88

Q: With F20Y as the variant, how does the protein stability index read?
A: 1.92

Q: Which protein stability index does the source give for F20C here?
A: 4.04

Q: For F20V, which protein stability index is on record?
A: 3.06

Q: Which protein stability index does the source give for F20P here?
A: 3.39

Q: For S7Y, which protein stability index is on record?
A: 2.65

Q: With S7V as the variant, how does the protein stability index read?
A: 3

Q: Which protein stability index does the source give for S7H here?
A: 3.45

Q: With S7T as the variant, how does the protein stability index read?
A: 2.71

Q: With S7P as the variant, how does the protein stability index read?
A: 2.88

Q: With S7G as the variant, how does the protein stability index read?
A: 3.09

Q: For S7R, which protein stability index is on record?
A: 3.4

Q: Which protein stability index does the source give for S7F here?
A: 3.48

Q: Which protein stability index does the source give for S7C here?
A: 1.83

Q: With I1A as the variant, how does the protein stability index read?
A: 3.5

Q: With I1K as the variant, how does the protein stability index read?
A: 2.65

Q: For I1T, which protein stability index is on record?
A: 3.44

Q: For I1E, which protein stability index is on record?
A: 4.34

Q: With I1F as the variant, how does the protein stability index read?
A: 2.15

Q: Which protein stability index does the source give for I1N here?
A: 2.63

Q: Which protein stability index does the source give for I1P here?
A: 3.96

Q: Which protein stability index does the source give for I1V here?
A: 2.61

Q: Which protein stability index does the source give for A10P here?
A: 2.39

Q: For A10S, which protein stability index is on record?
A: 2.6

Q: With A10I as the variant, how does the protein stability index read?
A: 4.24

Q: With A10F as the variant, how does the protein stability index read?
A: 3.04

Q: Which protein stability index does the source give for A10N here?
A: 1.6

Q: For A10K, which protein stability index is on record?
A: 1.79

Q: For A10T, which protein stability index is on record?
A: 4.58

Q: Which protein stability index does the source give for A10E here?
A: 3.6

Q: For A10G, which protein stability index is on record?
A: 3.32

Q: Which protein stability index does the source give for G14E here?
A: 2.76

Q: With G14T as the variant, how does the protein stability index read?
A: 2.79

Q: For G14R, which protein stability index is on record?
A: 2.97

Q: With G14C as the variant, how does the protein stability index read?
A: 2.05

Q: Which protein stability index does the source give for L12G here?
A: 3.36

Q: For L12P, which protein stability index is on record?
A: 2.99

Q: For L12D, which protein stability index is on record?
A: 3.44

Q: Which protein stability index does the source give for L12H here?
A: 3.22

Q: With L12K as the variant, how does the protein stability index read?
A: 3.15

Q: Which protein stability index does the source give for L12E here?
A: 2.51

Q: For L12T, which protein stability index is on record?
A: 1.49

Q: For L12S, which protein stability index is on record?
A: 3.23

Q: For L12Q, which protein stability index is on record?
A: 4.09

Q: With L12Y as the variant, how does the protein stability index read?
A: 2.37

Q: Which protein stability index does the source give for G18H here?
A: 2.38

Q: For G18T, which protein stability index is on record?
A: 3.73

Q: With G18V as the variant, how does the protein stability index read?
A: 3.83

Q: Which protein stability index does the source give for G18A here?
A: 2.37

Q: Which protein stability index does the source give for G18M here?
A: 3.05

Q: For G18S, which protein stability index is on record?
A: 2.36

Q: Which protein stability index does the source give for G23H here?
A: 2.2

Q: With G23P as the variant, how does the protein stability index read?
A: 2.73

Q: For G23N, which protein stability index is on record?
A: 3.46

Q: With G23L as the variant, how does the protein stability index read?
A: 1.42

Q: Which protein stability index does the source give for G23S here?
A: 1.46

Q: For G23I, which protein stability index is on record?
A: 1.59
